Assay [1] deals with esophageal cancer PDX model E7. Description: Tumor growth inhibition in esophageal cancer PDX model. The following applies: 26th day; antibody 20 mg/kg i.p. twice a week, cisplatin 3 mg/kg i.v. once a week, 4 weeks. The assay is classed as in vivo, NOD/SCID mice. An excerpt: Human gremlin IHC specifically positive esophageal tumor tissue (E7) was obtained from Beijing Cancer Hospital passage in NOD/SCID mice and established PDX bank. […] Each mouse was subcutaneously inoculated with a small tumor tissue block approximately 3 mm in diameter which sheared from integrated tumor decollement form a tumor bearing mouse. 18 days after inoculation animals with tumor size at about 70 mmn^3 were selected and randomly divided into 4 groups, each group consisting of 8 mice. Then the mice were treated with isotype control+PBS, the anti-GREM1 antibody of the present disclosure at dose of 20 mg/kg, Cisplatin at dose of 3 mg/kg and combination of the anti-GREM1 antibody of the present disclosure and Cisplatin. Isotype control and the anti-GREM1 antibody of the present disclosure were administrated twice a week for 4 weeks by i.p. injection and PBS, while Cisplatin was administrated once a week for 4 weeks by i.v. injection. Animals were sacrificed at the end of the study with CO2 inhalation. Tumor size was measured twice or triple times a week in two dimensions using a caliper (INSIZE) and the volume was expressed in mmA3 using the formula: V=0.5 a*b^2 where a and b are the long and short diameters of the tumor, respectively. Results were analyzed using Prism GraphPad and expressed as mean±S.E.M. Comparisons between two groups were made by T-test, and the difference is considered significant if p is *<0.05 and **<0.01.

The target of assay [2] is modified human GREM1-his (human) (UniProt O60565). In words: blocking ELISA; competitor coated human BMP4; 1 ug/ml modified human GREM1-his detected with anti-his HRP. For orientation: An ELISA detects its analyte on a solid surface through an enzyme-linked reagent.
Assay [3] deals with human Gremlin/GREM1 protein (Acro) (human) (UniProt O60565). In words: ELISA, binding to hGremlin-his.
The target is the same in assay [4]. Description: BLI (ForteBio), human GREM1-his on NTA biosensor, antibody at 100, 50 and 25 nM. For orientation: Biolayer interferometry detects binding as a change in optical thickness at a sensor tip.
Assay [5] has as its target modified human GREM1-his (human) (UniProt O60565). In words: blocking ELISA; competitor coated human BMP2; 1 ug/ml modified human GREM1-his detected with anti-his HRP.
Assay [6] concerns the target human Gremlin/GREM1 protein (Acro) (human) (UniProt O60565). Description: ELISA, coated hGREM1 (ACRO).
In assay [7] the target is T1, human Gremlin/GREM1 protein (Acro) (human, UniProt O60565 25-184).
T1 construct: Bought protein (ACRO); also called hGREM1 (ACRO); human GREM1; not shown: his tag
T1 sequence (looked up): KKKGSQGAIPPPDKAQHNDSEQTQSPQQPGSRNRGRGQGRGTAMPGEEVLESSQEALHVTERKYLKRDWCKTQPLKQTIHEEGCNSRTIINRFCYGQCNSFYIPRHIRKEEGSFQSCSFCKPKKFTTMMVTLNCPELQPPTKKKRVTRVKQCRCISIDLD
Description: BLI (ForteBio), human GREM1-his on NTA biosensor. Here is the method: (§1) The concentration of 0 nM was used as a reference control. The antibody to be tested was diluted to a concentration of 100 nM, 50 nM and 25 nM with a ForteBio kinetic buffer (including PBS with a pH value of 7.4, 0.1% of BSA and 0.002% of Tween-20). […] Then, dissociation was performed in a kinetic buffer for 90 seconds to obtain Koff factor data.

Assay [8] deals with T1, human Gremlin/GREM1 protein (Acro). In words: BLI (ForteBio), human GREM1-his on NTA biosensor, antibody at 100, 50 and 25 nM. Here is the method:
as §1

Assay [9] shares this target. Description: ELISA, coated hGREM1 (ACRO). Here is the method:
(§2) A transparent polystyrene culture plate (BEAVER) was coated with a high pH coating buffer containing 0.5 μg/ml hGREM1 (ACRO) and mouse gremlin (R&D) at 100 μl/well at 4° C. overnight. Then, the culture plate was washed once with PBS and 0.1% of Tween 20 (Sigma) on an automatic culture plate washer. 100 μl of a blocking solution consisting of PBS, 1% of BSA, 1% of standard goat serum and 0.50% of Tween 20 (Sigma) was added into each well for incubation at room temperature for 2 hours. Then, 100 μl of an antibody (started with 2 μg/ml and continuously diluted) in an antibody dilution buffer containing PBS, 1% of BSA, 1% of standard goat serum and 0.01% of Tween 20 was added into each well of the culture plate for incubation at room temperature for 1 hour. Then, the culture plate was washed with 200 μl of a solution containing PBS and 0.1% of Tween 20 for three times, and goat anti-mouse IgG-HRP (Abcam) at a ratio of 1:10000 was added at 100 μl/well for incubation at room temperature for 1 hour. Then, the culture plate was washed with a solution containing PBS and 0.1% of Tween 20 for 3 times. Finally, TMB (Pierce) was added into each well at 100 μl/well, and several minutes later, 50 μl of a termination solution was added into each well. The culture plate was read on a Multiscan FC microplate reader (Thermo Scientific) at 450 nM.

For assay [10] the target is unchanged. Description: ELISA, binding to hGremlin-his. Here is the method:
as §2

In assay [11] the target is T2, Human GREM1 (Homo sapiens, UniProt O60565).
T2 construct: His; purchased ACRO
T2 sequence (O60565 25-184): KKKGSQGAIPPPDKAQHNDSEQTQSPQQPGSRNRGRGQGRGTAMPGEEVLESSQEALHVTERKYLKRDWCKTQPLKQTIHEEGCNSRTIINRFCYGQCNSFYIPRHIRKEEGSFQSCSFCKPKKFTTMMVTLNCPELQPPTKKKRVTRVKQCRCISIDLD
Description: Binding affinity to human GREM1 through ELISA. The following applies: for EC50 of binding to hGremlin-his: Table 17. Here is the method:
as §2, with “nM. As shown in Table 16 and Table 17, compared with a reference antibody 6245P, the anti-GREM1 antibody used in the present disclosure and other humanized anti-GREM1 antibodies (e.g., Hu14E3_HaLb, Hu14E3_HbLa, Hu14E3_HbLb, Hu14E3_HcLa and Hu14E3_HcLb) have better binding affinity with human GREM1.” for “nM.”

A word on the IC50: it is the concentration needed to halve the response being measured. Low values mean inhibition by little substance, high ones a need for much substance. As a reminder, the EC50 is the midpoint of the concentration-response curve. Read a low EC50 as a more potent agent. Broadly, the Kd is the equilibrium constant for the complex coming apart. Read a low Kd as a tighter complex.

As to `N.N.[Cl][Pt][Cl]` [Cisplatin, reference compound], in assay [1], the “TGI (%)” value was 59.79% and the “Tumor size (mm^3, mean +/− S.E.M)” value is 479.41 +/− 104.05 mm^3.

B1: reference antibody 6245P (antibody, from another filing, IgG4, V domains shown)
VH: EVQLVESGGGLVQPGGSLRLSCAASGFTFNSFWMSWVRQAPGKGLEWVANIKQDGSEKYYVDSVKGRFTISRDNAKNSVYLQMNSLRAEDTAVYYCARDLVTSFDYWGQGTLVTVSS
VL: DIQMTQSPSSLSASVGDRVTITCQASQDINNYLNWYQQKPGKAPKLLIYDASYLETGVPSGFSGSGSGTDFTFTISSLQPEDIATYYCQQYDSLPYTFGQGTKLEIK
As to B1, the IC50 in assay [2] amounted to 0.638 µg/mL; in [5], 0.797 µg/mL. In addition, the EC50 in [3] and in assay [6] was 0.0575 µg/mL each time. The Kd in assay [4] is 2.58 nM.

B2: Hu14E3_HaLa (antibody, human IgG1, kappa, V domains shown)
VH: QVQLVQSGSELKKPGASVKVSCKASGYTFTTYGMAWMRQAPGQGLEWMGWINTLSGEPTYADDFKGRFVFSLDTSVSTAYLQISSLKAEDTAVYYCAREPMDYWGQGTMVTVSS
VL: DVVMTQSPLSLPVTLGQPASISCKSSQSLLDSDGKTYLSWLQQRPGQSPRRLIYLVSKLDSGVPDRFSGSGSGTDFTLKISRVEAEDVGVYYCWQGAHFPLTFGQGTKLEIKR
notes: also called anti-GREM1 antibody used in the present disclosure; humanized 14E3
Turning to B2, the Kd in assay [7] was less than 1 nM; in [8], less than 1 pM. Besides, in assay [9], the EC50 is 6.9 ng/mL.

B3: Hu14E3_HbLb (antibody, human IgG1, V domains shown)
VH: QIQLVQSGSELKKPGASVKVSCKASGYTFTTYGMAWMRQAPGQGLEWMGWINTLSGEPTYADDFKGRFAFSLDTSVSTAYLQISSLKAEDTAVYYCAREPMDYWGQGTMVTVSS
VL: DVVMTQSPLSLPVTLGQPASISCKSSQSLLDSDGKTYLSWLQQRPGQSPRRLISLVSKLDSGVPDRFSGSGSGTDFTLKISRVEAEDVGVYYCWQGAHFPLTFGQGTKLEIK
notes: also called humanized 14E3
With B3, a half-maximal effect in assay [10] (EC50) was put at 6.2 ng/mL. Moreover, the “EC50 of binding to hGremlin-his” value in assay [11] turned out to be 6.2 ng/mL.

B4: Hu14E3_HaLa: humanized 14E3, heavy chain variable region SEQ ID NO: 7, light chain variable region SEQ ID NO: 8; antibody used in the examples (antibody, V domains shown)
VH: QVQLVQSGSELKKPGASVKVSCKASGYTFTTYGMAWMRQAPGQGLEWMGWINTLSGEPTYADDFKGRFVFSLDTSVSTAYLQISSLKAEDTAVYYCAREPMDYWGQGTMVTVSS
VL: DVVMTQSPLSLPVTLGQPASISCKSSQSLLDSDGKTYLSWLQQRPGQSPRRLIYLVSKLDSGVPDRFSGSGSGTDFTLKISRVEAEDVGVYYCWQGAHFPLTFGQGTKLEIK
Consider B4, for which, in assay [1], the “TGI (%)” value turned out to be 42.92% and the “Tumor size (mm^3, mean +/− S.E.M)” value is 680.59 +/− 163.73 mm^3. Besides, the “EC50 (ng/ml) Human GREM1” value in assay [11] (Table 16) amounted to 6.90 ng/mL. The “EC50 of binding to hGremlin-his” value in assay [11] stood at 6.9 ng/mL.

B5: Hu14E3_HcLa (antibody, human IgG1, V domains shown)
VH: QIQLVQSGSELKKPGASVKVSCKASGSTFTTYGMAWMKQAPGQGLTWMGWINTLSGEPTYADDFKGRFAFSLDTSVSTAYLQISSLKAEDTAVYYCAREPMDYWGQGTMVTVSS
VL: DVVMTQSPLSLPVTLGQPASISCKSSQSLLDSDGKTYLSWLQQRPGQSPRRLIYLVSKLDSGVPDRFSGSGSGTDFTLKISRVEAEDVGVYYCWQGAHFPLTFGQGTKLEIK
notes: also called humanized 14E3
B5 returned an EC50 in assay [10] of 6.6 ng/mL. The “EC50 of binding to hGremlin-his” value in assay [11] came out at 6.6 ng/mL.

B6: Hu14E3_HcLb (antibody, human IgG1, V domains shown)
VH: QIQLVQSGSELKKPGASVKVSCKASGSTFTTYGMAWMKQAPGQGLTWMGWINTLSGEPTYADDFKGRFAFSLDTSVSTAYLQISSLKAEDTAVYYCAREPMDYWGQGTMVTVSS
VL: DVVMTQSPLSLPVTLGQPASISCKSSQSLLDSDGKTYLSWLQQRPGQSPRRLISLVSKLDSGVPDRFSGSGSGTDFTLKISRVEAEDVGVYYCWQGAHFPLTFGQGTKLEIK
notes: also called humanized 14E3
For B6, the response in [10] was half-maximal at 6.1 ng/mL (EC50). The “EC50 of binding to hGremlin-his” value in assay [11] was found to be 6.1 ng/mL.

B7: Hu14E3_HaLb (antibody, human IgG1, V domains shown)
VH: QVQLVQSGSELKKPGASVKVSCKASGYTFTTYGMAWMRQAPGQGLEWMGWINTLSGEPTYADDFKGRFVFSLDTSVSTAYLQISSLKAEDTAVYYCAREPMDYWGQGTMVTVSS
VL: DVVMTQSPLSLPVTLGQPASISCKSSQSLLDSDGKTYLSWLQQRPGQSPRRLISLVSKLDSGVPDRFSGSGSGTDFTLKISRVEAEDVGVYYCWQGAHFPLTFGQGTKLEIK
notes: also called humanized 14E3
Molecule B7 gave an EC50 in [10] of 5.6 ng/mL. In addition, in assay [11], the “EC50 of binding to hGremlin-his” value amounted to 5.6 ng/mL.

B8: Hu14E3_HbLa (antibody, human IgG1, V domains shown)
VH: QIQLVQSGSELKKPGASVKVSCKASGYTFTTYGMAWMRQAPGQGLEWMGWINTLSGEPTYADDFKGRFAFSLDTSVSTAYLQISSLKAEDTAVYYCAREPMDYWGQGTMVTVSS
VL: DVVMTQSPLSLPVTLGQPASISCKSSQSLLDSDGKTYLSWLQQRPGQSPRRLIYLVSKLDSGVPDRFSGSGSGTDFTLKISRVEAEDVGVYYCWQGAHFPLTFGQGTKLEIK
notes: also called humanized 14E3
B8: the response in assay [10] was half-maximal at 6 ng/mL (EC50). Moreover, the “EC50 of binding to hGremlin-his” value in assay [11] was determined as 6.0 ng/mL.

These data come from US20260265352A1, “STABLE PHARMACEUTICAL FORMULATION COMPRISING ANTI-GREMLIN1 ANTIBODY” (SUZHOU TRANSCENTA THERAPEUTICS CO., LTD., priority 2022, published 2026).
